Consider 1 molecule from patent publication US20190276541A1 (Seagen, published 2019).

The target in this assay is T1, CD3 on human T cells (human, UniProt P07766 23-207).
T1 construct: whole, on cells; The native CD3 complex on primary T cells, which were gated with anti-CD2-FITC; also called T cell receptor CD3; CD3 complex
The experiment in a line: flow cytometry on human T cells in PBMCs, anti-Fc Alexa 647 secondary.

T1 sequence (P07766 23-207): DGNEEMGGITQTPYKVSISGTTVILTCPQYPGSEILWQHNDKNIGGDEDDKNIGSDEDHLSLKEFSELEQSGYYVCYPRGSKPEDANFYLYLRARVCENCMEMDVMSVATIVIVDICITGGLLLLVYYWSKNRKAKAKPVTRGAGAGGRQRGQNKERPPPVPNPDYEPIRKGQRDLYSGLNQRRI
Procedure: T cells are used to assess binding of antibodies to CD3. For T cell binding assay, PBMCs are isolated from 100 ml of human blood sample using the protocol described previously. […] 50 μl of cells are added to each well of an assay plate. […] Equal volumes of PBMCs and bispecific antibody dilutions are mixed to produce a binding curve. Anti-CD2-FITC (BD Biosciences, San Jose, Calif.) is added to each well to selectively stain T cells. The plate is incubated for 1 hour at 4° C. Cells are washed and pelleted three times with FACS buffer consisting of PBS, 5% FBS and 0.05% sodium azide. […] Cells are washed and pelleted three times again with FACS buffer. Cells are then resuspended in 200 μL FACS buffer and analyzed on a BD ACCURI™ C6 flow cytometer (BD Biosciences, San Jose, Calif.).

B1: 2G12-2B2 having VL0 and VH3 variable domains (antibody, V domains shown)
VH: EVQLVQSGAEVKKPGASVKVSCKASGYTFTDHAIHWVRQAPGQGLEWMGYFSPGNDDIKYNEKFRGRVTMTADKSSSTAYMELRSLRSDDTAVYFCKRSLSTPYWGQGTLVTVSS
VL: DIVMTQSPDSLAVSLGERATINCKSSQSLLNRGNHKNYLTWYQQKPGQPPKLLIYWASTRESGVPDRFSGSGSGTDFTLTISSLQAEDVAVYYCQNDYTYPYTFGQGTKVEIK
notes: also called 2G12-2B2 control; 2G12-2B2 comprising VL0 and VH3
For the molecule B1, the binding result is given as “no binding (tested: 0 to 10 µg per 500,000 cells)”.
